In patent publication US20140295012A1, “LATENT HUMAN IMMUNODEFICIENCY VIRUS REACTIVATION” (priority 2011, published 2014):
*1 amine or outer side, *2 acyl side, *3 side chain or, on linkers, in order; H or OH if unused. Where a SMILES comes first, the peptide text is derived from it. Bridges are numbered along the chain shown (N, C = ends). Roman numbers before positions name the chains, in order. [ ]: non-standard residue; d: D form. Actinocin(9to1) = Cc1c2oc3c(C)ccc(C(=O)[*:1])c3nc-2c(C(=O)[*:2])c(N)c1=O; NMeV = CN[C@H](C(=O)O)C(C)C; Sar = CNCC(=O)O

B1: HRF: flagellin polypeptide from Massilia timonae (SEQ ID NO:10), used as bacterial culture supernatant (protein)
chain: MASVINTNVPSLNSQRNLSTSQAQLNTSIQRLSSGMRINSAKDDAAGLAISDRMNSQIKGMTQATRNANDGVSMAQTAEGALSSSGDILQRIRELAVQSSNSSNSASDRKALQTEVTQLSSELNRIANTTEFNGQKLMDGTLGTANFQVGANAGQLISMTGANFNTSVYGNNQIAGDAAKAAATTSAAATGAFTISGYLGTSAAINTTDADTAKTIAASINNVTGDTGVTATARTDSFLKSAGGAHTMSLASDNSGTGEAVDISFTVGDGGDTADDYAAAISAFNAQTAKTGVTAEYDAVEKGLKLTNSAGENISLTNKAGSADIDMDTYAADGALMASALTLEAGDVGVANGRVTMDSEKSFSVAEGTDTGFELADSSALKSVAKIDISDFEGAQEAIKVADAALSAVNSQRAEYGALQSRFESAISNLSSSTENLSASRSRIVDTDFAAETAKMTRGQILQQAGTSMLAQANSLPNGVLSLLRG

How the values were obtained:
[1] = tested on: chronically actively infected T cell lines (JNLG#35 and JNLG#44); assay: Active HIV-1 transcription in chronically actively infected T cell lines JNLG#35 and JNLG#44 (GFP MCF); assay type: cell-based; details: 48 hours
Procedure: Changes in HIV-1 transcription levels were determined after 48 hours by measuring GFP mean channel fluorescence intensity (GFP MCF). GFP MCF was plotted over the drug concentration for dactinomycin (FIG. 12A), the DNA intercalators daunorubicin (DM) (FIG. 12B) and rebeccamycin (RM) (FIG. 12C), as well as the transcription inhibitors ICRF-193 (FIG. 12D), DRB (FIG. 12E) and α-amanitin (FIG. 12F). The size of symbols indicates the respective cell viability in the sample (size range adjusted to 5-95%).
For this purpose, each of the compounds was titrated over a relevant range of concentrations on two chronically actively infected T cell lines (JNLG#35 and JNLG#44). These clonal cell lines are infected with a GFP-reporter virus. Forty eight hours after addition of the compounds, the effect of each compound on HIV-1 transcription was determined by flow cytometric analysis quantifying GFP mean channel fluorescence intensity (MCF).

[2] = tested on: NF-κB dependent promoters in 293T cells; assay: NF-κB dependent promoter constructs transfected into 293T cells (EGFP expression); assay type: cell-based
Procedure: FIGS. 6A-6C show HRF triggers suboptimal functional induction of NF-κB dependent gene expression. […] The HIV-1 reactivating kinetics were determined by stimulating CA5 T cells with optimal concentrations of HRF, phorbol 12-myristate 13-acetate (PMA) and tumor necrosis factor-α (TNF-α) and analyzing HIV-1 reactivation as a function of EGFP-expression over a period of 48 hours. Data for all agents are depicted as the percentage of EGFP-positive cells in the total cell population. […] To test the ability of HRF to mediate Tat-independent activation of the HIV-1 LTR, NOMI cells (HIV-1 reporter cell line with an integrated LTR-EGFP construct) were stimulated with increasing concentrations of PMA (0.01-10 ng/ml), TNF-α (0.003-30 μg/ml) and HRF supernatant (0.3-100 μl). The level of LTR-induction was then measured as EGFP-expression detectable after 24 hours as determined by flow cytometric analysis. Arrows indicate the concentrations at which the respective stimulus would have triggered full HIV-1 reactivation in the latently HIV-1 infected CA5 T cell line. […] 293T cells were transfected with several NF-κB dependent promoter constructs and then stimulated with either TNF-α (10 μg/ml) or HRF (25 μl). Promoter induction was measured as total EGFP expression. (NF-κB:pNF-κB-d2EGFP; LTR:HIV-1 LTR-GFP; IL-8:pIL-8 GFP; TNF:human TNF-GFP; MSCV:murine stem cell virus LTR driven GFP; no NF-κB responsive elements).
The utilized EGFP reporter virus HIV-1 NLENG1-IRES has been described elsewhere (Kutsch et al., J. Virol. 76:8776-86 (2002); Levy et al., Proc. Natl. Acad. Sci. USA 101:4204-9 (2004)). The reporter plasmid pNF-κB-d2EGFP was purchased from Clontech (Mountain View, Calif.). The LTR-GFP construct and the IL-8 reporter construct have been described earlier (Choi et al., Mol. Cell. Biol. 22:724-36 (2002)). The TNF-promoter construct was generated by cloning the human TNF-α promoter element defined by primer pair 5′-BglII; 5′-[…] […]-3′ (SEQ ID NO:2) and 3′-AgeI; 5′-[…] […]-3′ (SEQ ID NO:3) into pd2EGFP (Clontech). MSCV-GFP was generated by cloning the EGFP-gene into retroviral pMSCV-puro vector (Clontech).

[3] = tested on: latently HIV-1 infected reporter T cell lines; assay type: cell-based
Procedure: FIGS. 1A and 1B show culture supernatants from Massilia timonae reactivate latent HIV-1 infection. […] Untreated control cells and HRF-treated cells were subjected to flow cytometric analysis to determine enhanced green fluorescent protein (EGFP) expression as a direct and quantitative marker of HIV-1 expression 24 hours post stimulation. FSC/SSC dot plots are represented to evaluate cell viability as a function of changes in the FSC (cell size)-SSC (granularity) phenotype of the cells. FIG. 1B is a histogram showing the reproducibility of the observed HIV-1 reactivation. Three independent preparations of HRF (batches HRF1-3) on four different latently infected T cell lines (5F3, 8E12, CA5 and 12D4) were tested. The percentage of EGFP positive cells following stimulation is depicted in the histogram. Cell culture supernatants of Pseudomonas aeruginosa cultures, grown under similar conditions, were used as specificity controls.
Infection levels in the cell cultures were monitored by flow cytometric analysis of EGFP expression. Flow cytometric analysis was performed on a GUAVA EasyCyte (Millipore; Billerica, Mass.), or a LSRII (Becton & Dickinson; Franklin Lakes, N.J.).

[4] = tested on: HIV-1 replication in PBMCs; assay: HIV-1 replication in PBMCs infected with GFP reporter virus; assay type: cell-based; details: saturating HRF levels, 5 days post infection
Procedure: FIGS. 8A-8C show HRF induced NF-κB and cytokine expression in peripheral blood mononuclear cells (PBMCs). […] PBMCs were activated with optimal concentrations of either PHA-L or with HRF. Cells were harvested at the indicated time points. Nuclear extracts were generated and NF-κB p50 activity and NF-κB p65 activity were determined using the TransAM™ NF-κB family ELISA kit (Active Motif). […] PBMCs from four different healthy donors were stimulated with an anti-CD3/CD28 antibody combination and infected with a GFP reporter virus on day 4 post-stimulation. HIV-1 replication was monitored in the absence (C) or presence of HRF for 5 days and the achieved HIV-1 infection levels were determined by flow cytometric analysis for the percentage of EGFP-positive cells. All infections were normalized to the infection level in the untreated culture and the histogram represents the mean infection levels obtained in 4 donor cultures±standard deviation. […] PBMCs from four healthy donors were left unstimulated (C) or stimulated with an anti-CD3/CD28 antibody combination as a positive control or were stimulated with a concentration of HRF that would trigger maximum HIV-1 reactivation in CA5 T cells. Culture supernatants were collected after 24 hours and the concentrations of a panel of cytokines was determined by BioPlex analysis. […]

[5] = tested on: IL-8, TNF-α, and IFN-γ; assay: Cytokine secretion by PBMCs (BioPlex analysis); assay type: cell-based, human; details: 24 hours
Procedure: FIGS. 8A-8C show HRF induced NF-κB and cytokine expression in peripheral blood mononuclear cells (PBMCs). […] PBMCs were activated with optimal concentrations of either PHA-L or with HRF. Cells were harvested at the indicated time points. Nuclear extracts were generated and NF-κB p50 activity and NF-κB p65 activity were determined using the TransAM™ NF-κB family ELISA kit (Active Motif). […] PBMCs from four different healthy donors were stimulated with an anti-CD3/CD28 antibody combination and infected with a GFP reporter virus on day 4 post-stimulation. HIV-1 replication was monitored in the absence (C) or presence of HRF for 5 days and the achieved HIV-1 infection levels were determined by flow cytometric analysis for the percentage of EGFP-positive cells. […] Culture supernatants were collected after 24 hours and the concentrations of a panel of cytokines was determined by BioPlex analysis. […]
Following stimulation of the peripheral blood mononuclear cells (PBMCs) with PHA-L or HIV-1 reactivating factor (HRF), supernatant samples were collected at time points between 12 and 48 hours post stimulation. […] Therefore, cytokine levels in culture supernatant samples from all donors were determined at the 24 hour time point using a customized Milliplex mAP kit for the simultaneous analysis of six human cytokines (IL-2, IL-4, IL-6, IL-8, TNF-α and IFN-γ). […]

Molecule | effect on active HIV-1 infection / transcription (GFP MCF) [1] | GFP expression driven by NF-κB responsive promoter constructs (IL-8, TNF-α, HIV-1 LTR, three consensus NF-κB sites) [2] | GFP expression of construct under control of murine stem cell virus LTR (no NF-κB responsive element) [2] | cell viability (flow cytometric FSC/SSC analysis) ([3]; culture supernatant on latently infected reporter T cell lines) | HIV-1 reactivation ([3]; four latently infected reporter T cell lines, culture supernatant) | HIV-1 replication [4] | pro-inflammatory cytokine secretion (IL-8, TNF-α, and IFN-γ) [5]
Cc1c2oc3c(C)ccc(C(=O)N[C@@H]4C(=O)N[C@H](C(C)C)C(=O)N5CCC[C@H]5C(=O)N(C)CC(=O)N(C)[C@@H](C(C)C)C(=O)O[C@@H]4C)c3nc-2c(C(=O)N[C@@H]2C(=O)N[C@H](C(C)C)C(=O)N3CCC[C@H]3C(=O)N(C)CC(=O)N(C)[C@@H](C(C)C)C(=O)O[C@@H]2C)c(N)c1=O [dactinomycin] (I: T[dV]P[Sar][NMeV] / II: T[dV]P[Sar][NMeV]; ester I:1-I:C, II:1-II:C; linker I:N-II:N via Actinocin(9to1)) | did not boost active infection, but rather inhibited active infection |  |  |  |  |  | 
B1 |  | weak GFP expression | Neither TNF-α nor HRF influenced GFP expression | No effect on cell viability | efficiently reactivate latent HIV-1 infection | not significantly increased | did not induce meaningful levels
